The supplement of paper PMC9112550, “Optimization of the antimicrobial peptide Bac7 by deep mutational scanning” (BMC Biology, 2022)

test system: Escherichia coli TOP10; test: shrunken log2 fold change of peptide-encoding DNA abundance (4.5 h post-induction vs induction); higher = less antimicrobial activity (less host growth inhibition); settings: time post-induction: 4.5 h; library: site-saturation at positions 5, 18, 19, 20
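Further: peptides expressed intracellularly from a pBAD plasmid library in pooled LB shake-flask culture, induced with 0.3% L-arabinose, DNA abundance read by NGS, three biological replicates, DESeq2 with apeglm shrinkage.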

Sequence | shrunken log2 fold change
RRIRKRPPRLPRPRPRPRPSPRP | 0.585
RRIRQRPPRLPRPRPRPYRQPRP | 0.00902
RRIRERPPRLPRPRPRPHYGPRP | -0.249
RRIRHRPPRLPRPRPRPQFGPRP | -0.184
RRIRQRPPRLPRPRPRPFWLPRP | 0.0473
RRIRGRPPRLPRPRPRPKRYPRP | 0.253
RRIRDRPPRLPRPRPRPISYPRP | -0.381
RRIRNRPPRLPRPRPRPLYAPRP | -0.0693
RRIRSRPPRLPRPRPRPDPPPRP | 0.746
RRIRQRPPRLPRPRPRPRDKPRP | 0.00325
RRIRQRPPRLPRPRPRPCEKPRP | -0.00192
RRIRNRPPRLPRPRPRPCETPRP | -0.0224
RRIRQRPPRLPRPRPRPHFPPRP | -0.216
RRIRLRPPRLPRPRPRPNIDPRP | -0.213
RRIRHRPPRLPRPRPRPRVLPRP | -0.0249
RRIRCRPPRLPRPRPRPVSVPRP | -0.0739
RRIRVRPPRLPRPRPRPQSHPRP | -0.613
RRIRSRPPRLPRPRPRPFRRPRP | -0.261
RRIRLRPPRLPRPRPRPCYVPRP | -1.08
RRIRLRPPRLPRPRPRPPPAPRP | 1.52
RRIRPRPPRLPRPRPRPDHFPRP | -0.0536
RRIRNRPPRLPRPRPRPLIDPRP | -0.0832
RRIRNRPPRLPRPRPRPKYDPRP | -0.624
RRIRQRPPRLPRPRPRPVKQPRP | -0.0153
RRIRGRPPRLPRPRPRPHRLPRP | 0.14

Sequence | shrunken log2 fold change
RRIRDRPPRLPRPRPRPNDCPRP | -0.0197
RRIRARPPRLPRPRPRPPQGPRP | 0.689
RRIRSRPPRLPRPRPRPISCPRP | -0.0707
RRIRDRPPRLPRPRPRPPIDPRP | 0.0165
RRIRNRPPRLPRPRPRPWVRPRP | -0.0742
RRIRPRPPRLPRPRPRPCAMPRP | 0.0848
RRIRGRPPRLPRPRPRPNPVPRP | 0.145
RRIRKRPPRLPRPRPRPFPWPRP | 0.582
RRIRGRPPRLPRPRPRPQTIPRP | 0.28
RRIRRRPPRLPRPRPRPIDTPRP | -0.307
RRIRFRPPRLPRPRPRPMEFPRP | -0.194
RRIRHRPPRLPRPRPRPWVLPRP | -0.776
RRIRSRPPRLPRPRPRPDHHPRP | -0.868
RRIRTRPPRLPRPRPRPLNIPRP | -0.36
RRIRNRPPRLPRPRPRPNVEPRP | -0.0627
RRIRDRPPRLPRPRPRPDIRPRP | -0.00151
RRIRKRPPRLPRPRPRPCQCPRP | -0.0903
RRIRQRPPRLPRPRPRPQLVPRP | 0.128
RRIRSRPPRLPRPRPRPNSDPRP | -0.0183
RRIRDRPPRLPRPRPRPFNSPRP | -0.0203
RRIRMRPPRLPRPRPRPPGGPRP | 1.15
RRIRHRPPRLPRPRPRPRQIPRP | -0.0442
RRIRARPPRLPRPRPRPGRFPRP | 1.11
RRIRKRPPRLPRPRPRPIKIPRP | -0.149
RRIRRRPPRLPRPRPRPQFDPRP | 0.107

Sequence | shrunken log2 fold change
RRIRTRPPRLPRPRPRPHPTPRP | 0.106
RRIRIRPPRLPRPRPRPSIIPRP | -0.866
RRIRHRPPRLPRPRPRPYHHPRP | -0.607
RRIRKRPPRLPRPRPRPHKQPRP | 0.164
RRIRMRPPRLPRPRPRPKLKPRP | 2.65
RRIRVRPPRLPRPRPRPARQPRP | 0.365
RRIRRRPPRLPRPRPRPFWMPRP | 0.0323
RRIRPRPPRLPRPRPRPKWVPRP | 0.111
RRIRFRPPRLPRPRPRPWHDPRP | 0.0237
RRIRERPPRLPRPRPRPDYRPRP | -0.285
RRIRFRPPRLPRPRPRPAEVPRP | -0.127
RRIRMRPPRLPRPRPRPKWVPRP | 0.466
RRIRFRPPRLPRPRPRPNTSPRP | -0.307
RRIRGRPPRLPRPRPRPMYDPRP | 0.233
RRIRCRPPRLPRPRPRPHHYPRP | -0.685
RRIRVRPPRLPRPRPRPVLMPRP | 0.107
RRIRNRPPRLPRPRPRPPEVPRP | 0.0233
RRIRERPPRLPRPRPRPYKTPRP | -0.00814
RRIRTRPPRLPRPRPRPHNVPRP | -0.141
RRIRARPPRLPRPRPRPQDKPRP | -0.132
RRIRSRPPRLPRPRPRPKKNPRP | 0.267
RRIRNRPPRLPRPRPRPQMEPRP | -0.191
RRIRLRPPRLPRPRPRPTYNPRP | -0.869
RRIRWRPPRLPRPRPRPLLCPRP | 0.15
RRIRRRPPRLPRPRPRPKYKPRP | -0.148
